Measured values reported in US12404345B2, “Humanized antibodies against iRHOM2” (SCIRHOM GMBH, priority 2021, dated 2025).

Tests used:
Settings in all cases: antibody at 3 μg/ml
rabbit iRhom2 = assay: FACS cross-reactivity on MEF-DKO-Rabbit-iR2-FL-WT-T7 cells; assay type: binding
Source text: (§1) Next, iRhom1/2−/− DKO MEFs stably expressing a tagged form of rhesus monkey, cynomolgus monkey, dog or rabbit iRhom2 were generated in order to determine cross-reactivity of the antibodies of the invention with the respective orthologue of iRhom2. iRhom1/2−/− DKO MEFs stably expressing a tagged form of rhesus monkey, cynomolgus monkey, dog or rabbit iRhom1 were generated to confirm specificity for iRhom2 versus iRhom1 of these species.
(§2) In brief, on day 1, Phoenix-ECO cells (American Type Culture Collection, USA) were seeded on 6-well tissue culture plates (Greiner, Germany) in standard growth medium at 8×10^5 cells per well and kept overnight at 37° C., 5% CO2. On day 2, the medium was replaced by fresh medium supplemented with chloroquine (Sigma-Aldrich, USA) at a final concentration of 25 μM. Applying the calcium phosphate method, cells were transfected with 2 μg/ml of pMSCV (Clontech, USA) empty vector, pMSCV-rhesus-iR2-FL-WT-T7 encoding rhesus monkey iRhom2 full length wild type C-terminally tagged with 3 consecutive copies of the T7 epitope, pMSCV-cyno-iR2-FL-WT-T7 encoding cynomolgus monkey iRhom2 full length wild type C-terminally tagged with 3 consecutive copies of the T7 epitope, pMSCV-dog-iR2-FL-WT-T7 encoding dog iRhom2 full length wild type C-terminally tagged with 3 consecutive copies of the T7 epitope or pMSCV-rabbit-iR2-FL-WT-T7 encoding rabbit iRhom2 full length wild type C-terminally tagged with 3 consecutive copies of the T7 epitope, respectively, and were kept at 37° C., 5% CO2. After 7 hours, the transfections were stopped by replacing cell supernatants with standard growth medium lacking chloroquine, and cells were incubated at 37° C., 5% CO2 to allow virus production overnight. In parallel, immortalized iRhom1/2−/− DKO MEFs as target cells for retroviral infection were seeded on 6-well tissue culture plates (Greiner, Germany) in standard growth medium at 1×10^5 cells per well and were also kept overnight at 37° C., 5% CO2. On day 3, the supernatants of Phoenix-ECO cells releasing pMSCV, pMSCV-rhesus-iR2-FL-WT-T7, pMSCV-cyno-iR2-FL-WT-T7, pMSCV-dog-iR2-FL-WT-T7 or pMSCV-rabbit-iR2-FL-WT-T7 ecotrophic virus, respectively were collected, filtered with 0.45 μm CA filters, and supplemented with 4 μg/ml of polybrene (Sigma-Aldrich, USA). Upon removal of medium from the immortalized iRhom1/2−/− DKO MEFs, the virus containing supernatants were added to the target cells for 4 hours at 37° C., 5% CO2 for first infection. Simultaneously, Phoenix-ECO cells were re-incubated with fresh medium, which, after another 4 hours, was filtered and used for the second infection of the respective target cell populations, again in the presence of 4 μg/ml of polybrene. Likewise, a third, but overnight infection cycle was performed. On day 4, virus containing cell supernatants were replaced by fresh standard growth medium. From day 5 onwards, cells were grown in the presence of 2 mg/ml of geneticin (G418, Thermo Fisher Scientific, USA) for the selection of immortalized MEF-DKO-EV control cells stably infected with pMSCV empty vector, pMSCV-rhesus-iR2-FL-WT-T7 cells stably expressing rhesus monkey iRhom2 full length wild type C-terminally tagged with 3 consecutive copies of the T7 epitope, pMSCV-cyno-iR2-FL-WT-T7 cells stably expressing cynomolgus monkey iRhom2 full length wild type C-terminally tagged with 3 consecutive copies of the T7 epitope, pMSCV-dog-iR2-FL-WT-T7 cells stably expressing dog iRhom2 full length wild type C-terminally tagged with 3 consecutive copies of the T7 epitope or pMSCV-rabbit-iR2-FL-WT-T7 cells stably expressing rabbit iRhom2 full length wild type C-terminally tagged with 3 consecutive copies of the T7 epitope, respectively. Upon propagation, cells were stocked for future usage. In parallel, iRhom1/2−/− DKO MEFs stably expressing a tagged form of rhesus monkey, cynomolgus monkey, dog or rabbit iRhom1 were generated in an analogous manner. […]

rabbit iRhom1 = assay: FACS binding on MEF-DKO-Rabbit-iR1-FL-WT-T7 cells
Source text: as §1, §2

cynomolgus monkey iRhom1 = assay: FACS binding on MEF-DKO-Cyno-iR1-FL-WT-T7 cells
Source text: as §1, §2

dog iRhom2 = biological target: T1, dog iRhom2 (Canis lupus familiaris, UniProt Q00M95); assay: FACS cross-reactivity on MEF-DKO-Dog-iR2-FL-WT-T7 cells; assay type: binding
T1 construct: pMSCV-dog-iR2-FL-WT-T7 encoding dog iRhom2 full length wild type; expressed in transfected cells; host or cells: immortalized iRhom1/2-/- DKO mouse embryonic fibroblasts, pMSCV retroviral infection
T1 sequence (Q00M95 1-827): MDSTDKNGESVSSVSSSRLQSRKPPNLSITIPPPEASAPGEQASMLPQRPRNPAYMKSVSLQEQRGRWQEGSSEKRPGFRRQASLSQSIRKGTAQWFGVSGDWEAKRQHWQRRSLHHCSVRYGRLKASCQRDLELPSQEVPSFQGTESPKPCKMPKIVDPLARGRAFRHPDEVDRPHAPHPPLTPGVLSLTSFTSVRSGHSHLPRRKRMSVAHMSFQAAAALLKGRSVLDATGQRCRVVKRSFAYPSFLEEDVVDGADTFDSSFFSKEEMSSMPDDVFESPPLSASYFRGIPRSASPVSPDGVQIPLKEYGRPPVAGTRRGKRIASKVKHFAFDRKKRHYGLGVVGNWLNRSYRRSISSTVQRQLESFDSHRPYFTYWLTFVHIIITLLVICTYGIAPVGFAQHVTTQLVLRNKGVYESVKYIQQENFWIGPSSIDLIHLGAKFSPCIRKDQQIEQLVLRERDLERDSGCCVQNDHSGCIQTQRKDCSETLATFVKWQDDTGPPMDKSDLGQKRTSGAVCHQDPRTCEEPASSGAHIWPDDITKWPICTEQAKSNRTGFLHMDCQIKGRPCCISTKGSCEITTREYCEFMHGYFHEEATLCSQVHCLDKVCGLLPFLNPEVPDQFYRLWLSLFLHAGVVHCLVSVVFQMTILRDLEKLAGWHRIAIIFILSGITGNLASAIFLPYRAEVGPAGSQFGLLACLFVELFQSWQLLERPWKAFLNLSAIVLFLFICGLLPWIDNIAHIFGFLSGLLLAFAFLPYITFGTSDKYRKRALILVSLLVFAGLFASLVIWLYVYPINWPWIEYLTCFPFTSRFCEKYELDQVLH
Source text: as §1, §2

Molecule | binding to rabbit iRhom2 on MEF-DKO-Rabbit-iR2-FL-WT-T7 cells (rabbit iRhom2) | binding to rabbit iRhom1 on MEF-DKO-Rabbit-iR1-FL-WT-T7 cells (rabbit iRhom1) | binding to cynomolgus monkey iRhom1 on MEF-DKO-Cyno-iR1-FL-WT-T7 cells (cynomolgus monkey iRhom1) | binding to dog iRhom2 on MEF-DKO-Dog-iR2-FL-WT-T7 cells (dog iRhom2)
23-B-04: humanized antibody binding human iRhom2; HCVD SEQ ID NO 25, LCVD SEQ ID NO 29 (antibody, V domains shown, antibody sequences) VH: QVTLRESGPALVKPTQTLTLTCTFSGFSLSTFGMGVGWIRQPPGKALEWLAHIWWDDEKYYNSALKSRLTISKDTSKNQVVLTITNMDPVDTATYYCARISNYGSNYWYFNVWGQGTLVTVSS VL: AIQLTQSPSSLSASVGDRVTITCRASSSVSYMYWYQQKPGKAPKVLIYDTSNLASGVPSRFSGSGSGTDYTLTISSLQPEDFATYYCQQWNAYPLTFGQGTKLEIK | recognize rabbit iRhom2 | do not recognize rabbit iRhom1 | do not recognize cynomolgus monkey iRhom1 | recognize dog iRhom2
42-B-02: humanized antibody binding human iRhom2; HCVD SEQ ID NO 33, LCVD SEQ ID NO 37 (antibody, V domains shown, antibody sequences) VH: QVTLRESGPALVKPTQTLTLTCTFSGFSLSTFGRGVGWIRQPPGKALEWLAHIWWDDEKYYNSALKSRLTISKDTSKNQVVLTITNMDPVDTATYYCARIQNYGSNYWYFDVWGQGTLVTVSS VL: AIQLTQSPSSLSASVGDRVTITCRASSRISYMFWYQQKPGKAPKVLIYDTSNLASGVPSRFSGSGSGTDYTLTISSLQPEDFATYYCQQWNSYPLTFGQGTKLEIK | recognize rabbit iRhom2 | do not recognize rabbit iRhom1 | do not recognize cynomolgus monkey iRhom1 | recognize dog iRhom2
42-B-04: humanized antibody binding human iRhom2; HCVD SEQ ID NO 41, LCVD SEQ ID NO 45 (antibody, V domains shown, antibody sequences) VH: QVTLRESGPALVKPTQTLTLTCTFSGFSLSTFGRGVGWIRQPPGKALEWLAHIWWDDEKYYNSALKSRLTISKDTSKNQVVLTITNMDPVDTATYYCARIQNYGSNYWYFDVWGQGTLVTVSS VL: AIQLTQSPSSLSASVGDRVTITCRASSRISYMFWYQQKPGKAPKVLIYDTSNLASGVPSRFSGSGSGTDYTLTISSLQPEDFATYYCQQWNAYPLTFGQGTKLEIK | recognize rabbit iRhom2 | do not recognize rabbit iRhom1 | do not recognize cynomolgus monkey iRhom1 | recognize dog iRhom2
16-B-03: humanized antibody binding human iRhom2; HCVD SEQ ID NO 1, LCVD SEQ ID NO 5 (antibody, V domains shown, antibody sequences) VH: QVTLRESGPALVKPTQTLTLTCTFSGFSLSTFALGVGWIRQPPGKALEWLAHIWWDDDKYYNPALKSRLTISKDTSKNQVVLTITNMDPVDTATYYCARITTYYYGMDYWGQGTLVTVSS VL: EIVMTQSPDFQSVTPKEKVTITCRASQSIGNHLHWYQQKPDASPKLLIKYASQSISGVPSRFSGSGSGTDFTLTINSLEAEDAATYFCQQSYQWPLTFGQGTKLEIK | Strong binding | no significant binding | no significant binding | Strong binding
16-B-05: humanized antibody binding human iRhom2; HCVD SEQ ID NO 9, LCVD SEQ ID NO 13 (antibody, V domains shown, antibody sequences) VH: QVTLRESGPALVKPTQTLTLTCTFSGFSLSTFALGVGWIRQPPGKALEWLAHIWWDEDKYYNPALKSRLTISKDTSKNQVVLTITNMDPVDTATYYCARITTYYYGMDYWGQGTLVTVSS VL: EIVMTQSPDFQSVTPKEKVTITCRASQSIGNHLHWYQQKPDASPKLLIKYASQSISGVPSRFSGSGSGTDFTLTINSLEAEDAATYFCQQSYNWPLTFGQGTKLEIK | recognize rabbit iRhom2 | do not recognize rabbit iRhom1 | do not recognize cynomolgus monkey iRhom1 | recognize dog iRhom2
16-B-07: humanized antibody binding human iRhom2; HCVD SEQ ID NO 17, LCVD SEQ ID NO 21 (antibody, V domains shown, antibody sequences) VH: QVTLRESGPALVKPTQTLTLTCTFSGFSLSTFALGVGWIRQPPGKALEWLAHIWWDEDKYYNPALKSRLTISKDTSKNQVVLTITNMDPVDTATYYCARITTYYYGMDYWGQGTLVTVSS VL: EIVMTQSPDFQSVTPKEKVTITCRASQSIGNHLHWYQQKPDASPKLLIKYASQSISGVPSRFSGSGSGTDFTLTINSLEAEDAATYFCQQSYQWPLTFGQGTKLEIK | recognize rabbit iRhom2 | do not recognize rabbit iRhom1 | do not recognize cynomolgus monkey iRhom1 | recognize dog iRhom2
